From patent US20250152663A1, “COMPOSITION FOR PREVENTION OR TREATMENT OF DRY EYE DISEASE COMPRISING HAPLN1” (HAPLNSCIENCE INC., priority 2021, published 2025)

Experiments:
rabbit dry eye model = assay: Tear volume assay (STT), benzalkonium chloride-induced dry eye disease model; type: in vivo, New Zealand white rabbits
Protocol: One drop (0.05 ml) of 0.1% benzalkonium chloride (BAC) was administered to both eyes of rabbits twice a day (9:00 and 17:00) for 14 days, and then induction of dry eye was identified by examination of eyes, and the rabbits were classified into groups.
The test substance was dropped into the groups of the rabbit model twice a day (8:30 and 16:30) (Day 15 to 30 (total of 16 days)).
Anesthesia was induced by intramuscular injection of Xylazine and Ketamine, and then one drop of Alcaine Eye Drop was administered and tear and the eye drop remaining therein were removed by using Weck-cel cellulose spear. After putting STT paper on the lower eyelid, a length of a wet region for 5 minutes was measured (STT-2). In addition, stability of the tear film was tested by measuring tear film break up time (TFBUT, measurement of time taken for the tear film to break down). Furthermore, conditions of the cornea and fluorescent staining were identified by a slit test.

corneal epithelial cells = assay: Detached corneal epithelial cells (H & E staining), rabbit dry eye model; type: in vivo, New Zealand white rabbits
Protocol: Eyes of the rabbits including conjunctiva were enucleated, fixed with a specific fixing solution to be embedded into paraffin, and microsectioned, followed by staining and analysis according to the purpose. In this regard, the eyeballs were stained by hematoxylin & eosin (H & E) staining and detachment of corneal epithelial tissue was analyzed. After PAS staining, distribution of goblet cells in the conjunctiva was measured. In addition, after conjunctiva epithelium indentation (impression cytology), PAS staining was performed and distribution of goblet cells was measured.
After 15 days of eye examination, on the 1st day after 16 days of drug treatment, eyes were enucleated, subjected to histopathological analysis, and paraffin blocked. Tissue was stained in a section slide by H & E staining (FIG. 16A). The number of corneal epithelial cells detached in a range of 200 μm^2 was measured and quantified (FIG. 16B).

[1] = test system: human corneal epithelial cells; assay: Scratch wound healing (cell proliferation and migration) under high osmotic pressure; type: cell-based; details: HCEC, 450 mOsM
Protocol: The human corneal epithelial cells were seeded onto 24 wells and incubated for 24 hours under low osmotic pressure conditions (314 mOsM). Then, after replacing the culture medium with a high osmotic pressure medium (450 mOsM), the cells were incubated for 48 hours. Then, the surface of the Petri dish was vertically scratched and washed twice, and then the culture medium was replaced with the high osmotic pressure medium again and simultaneously the cells were treated with different concentrations of the HAPLN1 protein-containing composition of the present disclosure (FIG. 2A). A reduction in the scratched area was confirmed by obtaining photographs using a microscope at a time of scratching (0 h) and after 30 hours (FIG. 2B). This was imaged and a ratio of an area filled with cells to an initial area was identified by using ImageJ (FIG. 2C).

[2] = test system: MUC16 mRNA in human corneal epithelial cells; assay: RT-qPCR of mucin mRNA (MUC16) under high osmotic pressure; type: cell-based; details: HCEC, 450 mOsM, 20 to 200 ng/ml, particularly 50 to 200 ng/ml, 24 hours; compared to the untreated group
Protocol: (§1) First, the human corneal epithelial cells (HCECs, 5th passage) were seeded onto 6 wells at a density of […]. After 24 hours, the HCECs were pre-treated with a medium with different osmotic pressures (314 and 450 mOsM). After 48 hours of incubation, the cells were treated with the composition of the present disclosure having different concentrations of rhHAPLN1 (0, 5, 10, 20, 50, 100, and 200 ng/ml) and Cyclosporine A (0.1 μM), as a control drug, for 24 hours. Then, the cells were washed and sampled to perform RT-qPCR (FIG. 5A).
(§2) Total mRNA was purified from the HCECs by using a Qiagen kit. A cDNA was synthesized by using the iScript cDNA synthesis kit. Subsequently, RT-qPCR was performed and result data was expressed as relative expression levels (fold) (FIGS. 5B to 5C).

[3] = test system: MUC4 mRNA in human corneal epithelial cells; assay: RT-qPCR of mucin mRNA (MUC4) under high osmotic pressure; type: cell-based; details: HCEC, 450 mOsM, 10 to 200 ng/ml, particularly 50 to 200 ng/ml, 24 hours; compared to the untreated group
Protocol: as §1, §2

B1: hyaluronan and proteoglycan link protein 1 (HAPLN1) (protein, listed as Homo sapiens)
chain: MKSLLLLVLISICWADHLSDNYTLDHDRAIHIQAENGPHLLVEAEQAKVFSHRGGNVTLPCKFYRDPTAFGSGIHKIRIKWTKLTSDYLKEVDVFVSMGYHKKTYGGYQGRVFLKGGSDSDASLVITDLTLEDYGRYKCEVIEGLEDDTVVVALDLQGVVFPYFPRLGRYNLNFHEAQQACLDQDAVIASFDQLYDAWRGGLDWCNAGWLSDGSVQYPITKPREPCGGQNTVPGVRNYGFWDKDKSRYDVFCFTSNFNGRFYYLIHPTKLTYDEAVQACLNDGAQIAKVGQIFAAWKILGYDRCDAGWLADGSVRYPISRPRRRCSPTEAAVRFVGFPDKKHKLYGVYCFRAYN
B1 was tested, and the “tear volume compared with Restasis” value (rabbit dry eye model; after 10 days) was “increased the tear volume far more than Restasis”, the tear volume (rabbit dry eye model; concentration-dependent, from the 5th day, more than Restasis) was “consistently increased” and the “number of detached corneal epithelial cells” value (corneal epithelial cells; after 16 days of drug treatment, concentration dependent) was “decreased”. For the same molecule, the “degree of detachment of corneal epithelial cells” value (corneal epithelial cells; high concentration (50 μg/ml)) was “lowest”, the “scratched surface covered by cell proliferation and migration” value ([1]; 5 and 10 ng/ml, 30 hours, normal cells about 82%) was “about 60%” and the “cell proliferation and migration phenomena of scratched surfaces” value ([1]; 5 to 100 ng/ml, 30 hours) was “observed over the entire area”. For the same molecule, the “area covered with migrated cells compared with Cyclosporin A” value ([1]; regardless of concentration, vs 0.1 μM Cyclosporin A) was “higher than 0.1 μM of Cyclosporin A”, the “expression level of MUC16 (FIG. 5C)” value [2] was “significantly increased” and the “expression level of MUC4 (FIG. 5B)” value [3] was “significantly increased”.
